T1: Human Semaphorin3A-Sema Domain, TPP-19068 (human, UniProt Q14563 21-569)
T1 construct: produced inhouse in HEK293-6E; also called human monovalent Sema3A domain
T1 sequence: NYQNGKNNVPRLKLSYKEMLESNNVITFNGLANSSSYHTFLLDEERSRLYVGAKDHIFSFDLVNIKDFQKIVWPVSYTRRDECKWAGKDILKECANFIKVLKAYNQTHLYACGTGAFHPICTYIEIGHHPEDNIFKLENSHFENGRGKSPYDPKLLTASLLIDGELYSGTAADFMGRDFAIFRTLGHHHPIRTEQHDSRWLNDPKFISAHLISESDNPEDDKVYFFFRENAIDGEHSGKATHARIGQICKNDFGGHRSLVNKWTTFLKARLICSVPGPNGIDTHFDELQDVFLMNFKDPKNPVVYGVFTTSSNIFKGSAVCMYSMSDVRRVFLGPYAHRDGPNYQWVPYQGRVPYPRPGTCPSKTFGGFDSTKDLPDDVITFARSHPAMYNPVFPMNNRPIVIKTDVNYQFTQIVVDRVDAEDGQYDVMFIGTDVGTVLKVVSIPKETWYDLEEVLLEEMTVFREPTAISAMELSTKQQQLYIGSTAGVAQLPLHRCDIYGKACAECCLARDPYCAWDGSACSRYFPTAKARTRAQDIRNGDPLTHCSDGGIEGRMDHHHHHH

T2: Mouse Semaphorin3A-Sema Domain, TPP-19069 (mouse, UniProt O08665 21-569)
T2 construct: produced inhouse
T2 sequence: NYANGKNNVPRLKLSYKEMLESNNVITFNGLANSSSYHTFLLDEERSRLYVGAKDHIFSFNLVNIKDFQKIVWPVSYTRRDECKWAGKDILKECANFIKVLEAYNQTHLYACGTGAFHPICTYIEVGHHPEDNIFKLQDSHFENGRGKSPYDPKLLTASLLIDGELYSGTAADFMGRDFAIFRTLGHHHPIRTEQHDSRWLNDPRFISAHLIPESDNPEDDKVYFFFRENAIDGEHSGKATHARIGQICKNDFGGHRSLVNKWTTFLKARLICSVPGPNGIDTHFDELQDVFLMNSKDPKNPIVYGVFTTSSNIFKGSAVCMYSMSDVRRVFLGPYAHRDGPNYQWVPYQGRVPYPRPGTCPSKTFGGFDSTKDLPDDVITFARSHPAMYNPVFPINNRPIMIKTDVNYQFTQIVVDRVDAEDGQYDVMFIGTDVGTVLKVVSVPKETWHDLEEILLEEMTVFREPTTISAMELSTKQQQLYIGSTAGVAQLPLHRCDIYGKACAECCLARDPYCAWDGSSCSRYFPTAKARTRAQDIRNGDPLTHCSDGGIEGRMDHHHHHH

T3: Cyno Semaphorin3A-Sema Domain, TPP-19122 (cynomolgus (Macaca fascicularis), UniProt Q63548 21-569 (rat entry), limits assumed)
T3 construct: produced inhouse
T3 chain: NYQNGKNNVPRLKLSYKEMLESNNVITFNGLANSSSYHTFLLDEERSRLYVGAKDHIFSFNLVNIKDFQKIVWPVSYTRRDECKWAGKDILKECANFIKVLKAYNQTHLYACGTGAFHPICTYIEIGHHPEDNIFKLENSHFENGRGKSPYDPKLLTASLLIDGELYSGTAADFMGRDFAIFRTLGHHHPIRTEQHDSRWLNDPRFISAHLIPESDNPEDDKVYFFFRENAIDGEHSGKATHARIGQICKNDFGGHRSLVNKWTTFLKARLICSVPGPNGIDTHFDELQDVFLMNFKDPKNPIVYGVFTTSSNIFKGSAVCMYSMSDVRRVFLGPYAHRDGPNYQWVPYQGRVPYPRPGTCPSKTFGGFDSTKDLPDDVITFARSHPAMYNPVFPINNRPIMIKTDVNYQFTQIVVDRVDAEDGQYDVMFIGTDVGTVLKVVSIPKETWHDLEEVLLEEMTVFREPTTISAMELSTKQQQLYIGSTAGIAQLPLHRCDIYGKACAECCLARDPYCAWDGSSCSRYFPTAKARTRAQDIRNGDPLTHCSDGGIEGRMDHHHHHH


What was measured:
[1] = target: T1, Human Semaphorin3A-Sema Domain, …; assay: SPR, captured antibody, Sema3A domain analyte
Method: (§1) To assess the binding kinetics and affinity of anti-Sema3A antibodies as well as their species cross-reactivity profile, binding assays were conducted using surface plasmon resonance (SPR). Binding assays were performed on a Biacore T200 instrument or on a Biacore 8K+ instrument (Cytiva) at 25° C. using assay buffer HBS P+, 300 mM NaCl, 0.75 mM CaCl₂, 2.5 mM MgCl₂, 1 mg/ml BSA, 0.05% NaN₃. Antibodies were captured either via anti-human Fc IgGs (“Human antibody capture kit”, Order No. BR100839, Cytiva) or in case of Fc-tagged analytes by anti-human Fab IgGs (“Human Fab capture kit”, Order No. 28958325, Cytiva) covalently amine coupled to a Series S CM5 sensor chip (Cytiva). The amine coupling was carried out according to the manufacturer's instructions using 1-ethyl-3-(3-dimethylaminopropyl) carbodiimide hydrochloride (EDC), N-hydroxysuccinimide (NHS) and ethanolamine HCl, pH 8.5 (“Amine Coupling Kit” BR-1000-50, Cytiva.). For phage display hits Fc-tagged human and mouse Sema3A was used as analytes in a concentration range from 1.56-200 nM. Human, mouse, cynomolgus, rat, dog and pig monovalent Sema3A domain were used as analytes in a concentration series from […] in multi cycle kinetics mode or in 100 nM for binding analysis only. The sensor surface was regenerated with glycine pH 2.0 after each antigen injection. Obtained sensorgrams were double referenced (subtraction of reference flow cell signal and buffer injection) and were fitted to a 1:1 Langmuir binding model to derive kinetic data using the Biacore T200 Evaluation software.

[2] = target: T2, Mouse Semaphorin3A-Sema Domain, …; assay: SPR, captured antibody, Sema3A domain analyte
Method: as §1

[3] = target: T3, Cyno Semaphorin3A-Sema Domain, TPP-19122; assay: SPR, captured antibody, Sema3A domain analyte
Method: as §1

[4] = target: T4, Human Semaphorin3A-Fc (R&D Systems), TPP-13211 (human); assay: competition ELISA on coated TPP-13211, competitor biotinylated TPP-15374
T4 construct: R&D Systems 1250-S3; also called recombinant human Sema3A-Fc chimera
Method: For screening in a competition ELISA setup, human Sema3a (TPP-13211) was coated onto 384-well plates (Greiner bio-one, 781077) with a concentration of 0.5 μg/ml in coating buffer (Carbonate-Basis pH 9.6, Candor 121125) over night at 10° C. After washing the plates 3 times with 50 μl PBS 0.05% Tween the plates were blocked with 50 μl Smart Block® (Candor 113500) for 1 h at 20° C. and washed again 3 times as described.
Subsequently, 20 μl of pre-mixed antibody solution was added to the plates and incubate for 18 h at 10° C. […] The total concentration of the added antibody solution was 0.25 μg/ml. During the incubation time the antibodies bound to the plates in a competitive manner as they compete for the same epitope on the human Sema3A protein.
After subsequent washing with 50 μl PBS 0.05% Tween for 3 times, 20 μl of a Streptavidin-HRP solution (R&D Systems, DY998, 1:200 in PBS 0.05% Tween 10% Smart Block) were added and incubated for 1 h and 20° C. followed by subsequent washing 3 times with 50 μl PBS 0.05% Tween and addition of 20 μl Amplex Red solution (Invitrogen A12222, 1:1000 in NaP-buffer 50 mM pH7.6 with 1:10000 of 30% H2O2). After a final incubation for 20 min at 20° C. the signal was determined using an emission wavelength of 595 nm and excitation of 530 nm.

T4 sequence (chain, as listed by the source limits assumed): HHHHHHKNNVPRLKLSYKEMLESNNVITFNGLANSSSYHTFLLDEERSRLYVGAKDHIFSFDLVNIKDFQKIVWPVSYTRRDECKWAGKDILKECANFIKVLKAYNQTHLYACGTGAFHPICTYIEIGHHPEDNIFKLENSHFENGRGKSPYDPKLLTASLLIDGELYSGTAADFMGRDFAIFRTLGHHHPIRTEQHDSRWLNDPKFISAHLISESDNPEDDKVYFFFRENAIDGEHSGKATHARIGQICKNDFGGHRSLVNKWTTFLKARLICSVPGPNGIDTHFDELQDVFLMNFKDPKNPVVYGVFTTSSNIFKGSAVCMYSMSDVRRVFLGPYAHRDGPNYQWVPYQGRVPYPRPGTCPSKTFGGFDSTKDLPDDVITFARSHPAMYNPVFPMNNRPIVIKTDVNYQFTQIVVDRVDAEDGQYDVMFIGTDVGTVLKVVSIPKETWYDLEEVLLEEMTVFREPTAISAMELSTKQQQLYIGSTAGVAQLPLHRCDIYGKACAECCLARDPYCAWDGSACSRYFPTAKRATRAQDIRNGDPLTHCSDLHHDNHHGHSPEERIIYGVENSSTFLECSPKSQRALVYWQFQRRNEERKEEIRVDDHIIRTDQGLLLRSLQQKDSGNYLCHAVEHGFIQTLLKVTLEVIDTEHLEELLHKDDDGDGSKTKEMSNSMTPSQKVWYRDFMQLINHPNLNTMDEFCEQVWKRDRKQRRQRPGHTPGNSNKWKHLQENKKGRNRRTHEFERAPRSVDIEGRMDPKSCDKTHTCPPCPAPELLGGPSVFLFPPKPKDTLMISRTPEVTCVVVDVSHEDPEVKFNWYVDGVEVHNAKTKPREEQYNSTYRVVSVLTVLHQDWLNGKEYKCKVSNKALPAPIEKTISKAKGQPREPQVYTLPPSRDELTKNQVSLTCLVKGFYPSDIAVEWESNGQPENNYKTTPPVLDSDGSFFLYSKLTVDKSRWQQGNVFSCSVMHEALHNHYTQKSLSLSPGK

Binder | Kd [1] [nM] | Kd [2] [nM] | Kd [3] [nM] | VAL norm to TPP-9809 (1 to 1 ratio) [4] | VAL norm to TPP-9809 (1 to 5 ratio) [4]
TPP-18533 (antibody, human IgG1, lambda, V domains shown, IgG1) VH: EVQLLESGGGLVQPGGSLRLSCAASGFTFSSYEMNWVRQAPGKGLEWVSGISWNSGSIGYADSVKGRFTISRDNSKNTLYLQMNSLRAEDTAVYYCARSGYSSSWFDPDFDYWGQGTLVTVSS VL: QSVLTQPPSVSGAPGQRVTISCTGSSSNIGAGYDVHWYQQLPGTAPKLLIYGNSNRPSGVPDRFSGSKSGTSASLAITGLQAEDEADYYCSSYAGSNPYVVFGGGTKLTVLG | 8.7 | 8.1 | 6.4 | – | –
TPP-25257 (antibody, human IgG1, lambda, V domains shown) VH: EVQLLESGGGLVQPGGSLRLSCAASGFDFDSYEMNWVRQAPGKGLEWVSGISWNSGWIDYADSVKGRFTISRDNSKNTLYLQMNSLRAEDTAVYYCARSGYSSSWFDPDFDYWGQGTLVTVSS VL: QSVLTQPPSVSGAPGQRVTISCTGSSSNIGAGYDVHWYQQLPGTAPKLLIYGNSNRPSGVPDRFSGSKSGTSASLAITGLQAEDEADYYCQSYAGPNPYVVFGGGTKLTVLG | 0.053 | – | – | 0.36 | 0.18
TPP-25064 (antibody, human IgG1, lambda, V domains shown) VH: EVQLLESGGGLVQPGGSLRLSCAASGFTFDSYEMNWVRQAPGKGLEWVSGISWNSGWIDYADSVKGRFTISRDNSKNTLYLQMNSLRAEDTAVYYCARSGYSSSWFDPDFDYWGQGTLVTVSS VL: QSVLTQPPSVSGAPGQRVTISCTGSSSDIGAGYDVHWYQQLPGTAPKLLIYGNSNRPSGVPDRFSGSKSGTSASLAITGLQAEDEADYYCSSYAGPNPYVVFGGGTKLTVLG | 0.049 | – | – | 0.48 | 0.19

Further binders by falling Kd [1], results first:

Kd [1] [nM] | Kd [2] [nM] | Kd [3] [nM] | VAL norm to TPP-9809 (1 to 1 ratio) [4] | VAL norm to TPP-9809 (1 to 5 ratio) [4] | Binder
0.051 | – | – | 0.37 | 0.17 | TPP-25255 (antibody, human IgG1, lambda, V domains shown) VH: EVQLLESGGGLVQPGGSLRLSCAASGFDFSSYEMNWVRQAPGKGLEWVSGISWNSGWIDYADSVKGRFTISRDNSKNTLYLQMNSLRAEDTAVYYCARSGYSSSWFDPDFDYWGQGTLVTVSS VL: QSVLTQPPSVSGAPGQRVTISCTGSSSNIGAGYDVHWYQQLPGTAPKLLIYGNSNRPSGVPDRFSGSKSGTSASLAITGLQAEDEADYYCQSYAGPNPYVVFGGGTKLTVLG
0.05 | – | – | 0.36 | 0.2 | TPP-25248 (antibody, human IgG1, lambda, V domains shown) VH: EVQLLESGGGLVQPGGSLRLSCAASGFDFSSYEMNWVRQAPGKGLEWVSGISWNSGWIGYADSVKGRFTISRDNSKNTLYLQMNSLRAEDTAVYYCARSGYSSSWFDPDFDYWGQGTLVTVSS VL: QSVLTQPPSVSGAPGQRVTISCTGSSSNIGAGYDVHWYQQLPGTAPKLLIYGNSNRPSGVPDRFSGSKSGTSASLAITGLQAEDEADYYCQSYAGPNPYVVFGGGTKLTVLG
0.049 | – | – | 0.43 | 0.17 | TPP-25224 (antibody, human IgG1, lambda, V domains shown) VH: EVQLLESGGGLVQPGGSLRLSCAASGFTFDSYEMNWVRQAPGKGLEWVSGISWNSGWIDYADSVKGRFTISRDNSKNTLYLQMNSLRAEDTAVYYCARSGYSSSWFDPDFDYWGQGTLVTVSS VL: QSVLTQPPSVSGAPGQRVTISCTGSSSNIGAGYDVHWYQQLPGTAPKLLIYGNSNRPSGVPDRFSGSKSGTSASLAITGLQAEDEADYYCQSYAGINPYVVFGGGTKLTVLG
0.049 | – | – | 0.41 | 0.15 | TPP-25256 (antibody, human IgG1, lambda, V domains shown) VH: EVQLLESGGGLVQPGGSLRLSCAASGFTFDSYEMNWVRQAPGKGLEWVSGISWNSGWIDYADSVKGRFTISRDNSKNTLYLQMNSLRAEDTAVYYCARSGYSSSWFDPDFDYWGQGTLVTVSS VL: QSVLTQPPSVSGAPGQRVTISCTGSSSNIGAGYDVHWYQQLPGTAPKLLIYGNSNRPSGVPDRFSGSKSGTSASLAITGLQAEDEADYYCQSYAGPNPYVVFGGGTKLTVLG

Source: US20240254222A1 (Bayer, published 2024)
